Results on one protein are retold here after paper PMC3464278, “Structural Characterization of the Complex of SecB and Metallothionein-Labeled proOmpA by Cryo-Electron Microscopy” (PLoS ONE, 2012).

The data set deals with the molecule itself. In words: cryo-EM structure; SecB/pOA1MTAu complex from gel filtration, vitrified on holey carbon grids, FEI Tecnai F20 at 200 kV; single particle analysis (EMAN), 19562 particles; about 20 Å; SecB crystal structure docked manually.

B1: SecB (natural protein, E. coli)
chain: MSEQNNTEMTFQIQRIYTKDISFEAPNAPHVFQKDWQPEVKLDLDTASSQLADDVYEVVLRVTVTASLGEETAFLCEVQQGGIFSIAGIEGTQMAHCLGAYCPNILFPYARECITSMVSRGTFPQLNLAPVNFDALFMNYLQQQAGEGTEEHQ
notes: SecB, molecular chaperone of the Sec pathway, E. coli; also called molecular chaperon SecB; E. coli SecB; source: prepared as described previously [26]
Take B1: the binding result was “binds”.
